Source: article PMC3469418, “New Partners in Regulation of Gene Expression: The Enhancer of Trithorax and Polycomb Corto Interacts with Methylated Ribosomal Protein L12 Via Its Chromodomain” (PLoS Genetics, 2012)
Where two headings read alike, the source gives them in different places.

What was measured:
Assay in all cases: SPR; Biacore 3000; GST, GST-CortoCD or GST-HP1CD covalently coupled to a CM5 chip; peptides injected at 1 or 10 µM (binding test) or in series from 1 to 10 µM (kinetics), 5 µL/min, 5 min; 10 mM Hepes pH7.4, 150 mM NaCl, 3 mM EDTA, 0.005% P20; 1:1 Langmuir fit
[1] = biological target: GST-CortoCD (Corto chromodomain fused to GST) (D. melanogaster)
[2] = biological target: GST-CortoCD (Corto chromodomain fused to GST) (D. melanogaster); remark: listed apart in the source
[3] = biological target: GST-HP1CD (HP1 chromodomain fused to GST)

Row | Kd [1] [µM] | Kd [2] [µM] | Kd [3] [µM] | Substance
1 | > 200 |  | > 200 | RPL12 peptide trimethylated on lysine 10
2 |  |  | 0.4 | histone H3 peptide trimethylated on lysine 9
3 |  |  | 0.7 | histone H3 peptide trimethylated on lysine 27

Second part, the substance before the results:

Row | Substance | Kd [1] [µM] | Kd [2] [µM] | Kd [3] [µM]
4 | RPL12 peptide dimethylated on lysine 3 | > 200 |  | 
5 | RPL12 peptide trimethylated on lysine 3 | 8 | < 100 | > 200
6 | RPL12 unmodified peptide | > 200 |  | > 200
